In US20120232127A1, “REGULATION OF NEUROTRANSMITTER RELEASE THROUGH ANION CHANNELS” (KOREA INSTITUTE OF SCIENCE AND TECHNOLOGY, priority 2008, published 2012):

Key:
[1] = tested on: astrocytic CAAC / mBest1 channel (glutamate release); test: Sniffer patch: astrocyte to GluR1 (L497Y)-expressing HEK293T cell pairs, TFLLR-induced glutamate release; assay type: cell-based, mouse; conditions: relative to scrambled shRNA
Protocol: (§1) The sniffer patch technique, which is used for determining whether or not one is permeable to glutamate, was performed as described in Lee, C. J. et al. Astrocytic control of synaptic NMDA receptors. J Physiol 581, 1057-81 (2007), which is hereby incorporated by reference for all purposes as if fully set forth herein.
(§2) 2. In experiments using astrocyte-HEK293T cell pairs, the sniffer patch techniques used naïve, scrambled- or mBest1-specific shRNA expressing (with GFP) astrocytes as a glutamate source; and GluR1 (L497Y) expressing HEK293T cells (with DsRED) as a detector. After obtaining gigaohm sealing, GluR1 (L497Y)-expressing cell was firstly ruptured, and then counterpart astrocytes were pressure-applied with 500 uM of TFLLR to evoke an increase in astrocytic intracellular Ca^2+ and resulting glutamate release onto the adjacent HEK293T cells.
(§3) GluR1LY-expressing detector cells were patched with the pipette solution pH 7.3 containing 110 mM CsGluconate, 30 mM CsCl, 5 mM HEPES, 4 mM NaCl, 2 mM MgCl2, 5 mM EGTA, and 1 mM CaCl2. The percentage of GluR1 (L497Y)-mediated current to the full activation level was analyzed by dividing the current amplitude of GluR1 (L497Y) current obtained through sniffer patch measurement by that of fully activated GluR1 (L497Y) current in the same cells.
(§4) The glutamate release through astrocytic CAACs was examined by using “sniffer-patch” technique and recording real-time glutamate release from cultured astrocytes (FIG. 10a). Using this technique, the present inventors observed that TFLLR-induced astrocytic glutamate release into an adjacent HEK293T cells expressing the non-desensitizing AMPA receptor subunit GluR1 (L497Y) mutant evoked an inward current sensitive to AMPA receptor antagonists, which is interpreted to reflect release of glutamate. The effects of TFLLR on current responses in transfected HEK293T cells was blocked by the treatment of niflumic acid (% block by niflumic acid=66.6±5.7%, FIGS. 10d to 10f), which is consistent with the idea that astrocytic CAAC is permeable to glutamate.

[2] = biological target: T1, astrocytic CAAC / mBest1 channel (glutamate release) (Mus musculus, UniProt O88870, R255K); test: as above; assay type: cell-based; conditions: sniffer patch, lentiviral shRNA expressing astrocytes, TFLLR
T1 construct: endogenous in cells; host or cells: cultured mouse cortical astrocytes
T1 sequence (O88870 1-551 R255K): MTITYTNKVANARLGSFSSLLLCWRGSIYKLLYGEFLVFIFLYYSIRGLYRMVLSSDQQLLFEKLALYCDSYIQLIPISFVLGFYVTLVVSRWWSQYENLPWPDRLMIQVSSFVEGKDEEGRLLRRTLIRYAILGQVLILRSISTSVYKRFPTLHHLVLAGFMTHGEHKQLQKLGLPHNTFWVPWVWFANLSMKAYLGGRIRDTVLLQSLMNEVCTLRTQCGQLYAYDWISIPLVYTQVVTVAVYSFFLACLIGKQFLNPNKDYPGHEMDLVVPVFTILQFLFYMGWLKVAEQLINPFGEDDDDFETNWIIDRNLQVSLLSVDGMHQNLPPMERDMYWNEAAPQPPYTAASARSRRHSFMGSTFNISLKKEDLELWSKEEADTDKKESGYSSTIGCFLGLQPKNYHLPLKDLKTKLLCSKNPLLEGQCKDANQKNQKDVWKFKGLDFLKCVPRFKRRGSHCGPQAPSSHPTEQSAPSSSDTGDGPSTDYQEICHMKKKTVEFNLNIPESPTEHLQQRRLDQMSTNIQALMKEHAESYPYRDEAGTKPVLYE
Protocol: as §1, §2, §3, §4

[3] = tested on: intracellular Ca2+ in cultured astrocytes; test: Ca2+ imaging of TFLLR-induced [Ca2+]i transient in cultured astrocytes; assay type: cell-based, mouse; conditions: shRNA expressing astrocytes, sniffer patch, TFLLR
Protocol: The External solution was comprised of (in mM) 150 NaCl, 10 HEPES, 3 KCl, 2 CaCl2, 2 MgCl2, 5.5 glucose, at pH 7.3 (˜320 mOsm). For voltage clamp recordings, the internal solution contained 25 μg/ml gramicidin D and (in mM) 75 Cs2SO4, 10 NaCl, 0.1 CaCl2, and 10 HEPES, at pH 7.1 (˜310 mOsm). For current clamp recordings, the internal solution contained 25 μg/ml gramicidin D and (in mM) 75 K2SO4, 10 KCl, 0.1 CaCl2, and 10 HEPES, at pH 7.1 (˜310 mOsm). Pipette resistances ranged from 5 to 8 MΩ. For perforated patch clamp, it took 20 to 30 min to achieve acceptable perforation, with final series resistances ranging from 15 to 40 MΩ.
To test if activation of PAR1 by its specific agonist (e.g., TFLLR) causes any change in membrane conductance that might contribute to glutamate release from astrocytes, the whole cell currents and intracellular Ca^2+ responses in cultured astrocytes under gramicidin-D perforated patch configuration were simultaneously recorded (FIG. 1a). This technique minimized dialysis of intracellular ions.

B1: mBest1 shRNA: mBest1-specific short hairpin RNA, SEQ ID NO: 3 and 4 (lentiviral: SEQ ID NO: 30), nucleotides 563-582 of mBest1 (nucleic acid)
chain 1: GATCCCCTTGCCAACTTGTCAATGAATTCAAGAGATTCATTGACAAGTTGGCAATTTTTA
chain 2: GGGAACGGTTGAACAGTTACTTAAGTTCTCTAAGTAACTGTTCAACCGTTAAAAATTCGA
- remaining component of glutamate release from astrocytes by mBest1 knock-down [1]: about 33%
- percentage of GluR1 (L497Y)-mediated current to the fully activated GluR1 (L497Y) current by 1 mM glutamate [2]: 4.2±1.2%
- increase in astrocytic intracellular Ca2+ [3]: unaffected
